{
  "source": "patent US20200157212A1",
  "about": "(Pfizer, published 2020)",
  "binders": {"B1": {"name": "Abcs35 (antibody, human IgG1, kappa)", "heavy": "EVQLVQSGAEVKKPGASVKVSCKASGYTFTGYYMHWVRQAPGQGLEWMGWINPKNGDTEFPQKFQGRVTMTRDTSITTAYMDLSRLRSDDTAVYYCARESGDDAFDIWGQGTMVTVSSASTKGPSVFPLAPSSKSTSGGTAALGCLVKDYFPEPVTVSWNSGALTSGVHTFPAVLQSSGLYSLSSVVTVPSSSLGTQTYICNVNHKPSNTKVDKKVEPKSCDKTHTCPPCPAPEAAGAPSVFLFPPKPKDTLMISRTPEVTCVVVDVSHEDPEVKFNWYVDGVEVHNAKTKPREEQYNSTYRVVSVLTVLHQDWLNGKEYKCKVSNKALPAPIEKTISKAKGQPREPQVYTLPPSREEMTKNQVSLTCLVKGFYPSDIAVEWESNGQPENNYKTTPPVLDSDGSFFLYSKLTVDKSRWQQGNVFSCSVMHEALHNHYTQKSLSLSPGK", "light": "DIVMTQSPSSLSASVGDRVTITCRASQSISSYLNWYQQKPGKAPKLLIYAASSLQSGVPSRFSGSGSGTDFTLTISSLQPEDFATYYCQQSVGLFFGGGTKVEIKRTVAAPSVFIFPPSDEQLKSGTASVVCLLNNFYPREAKVQWKVDNALQSGNSQESVTEQDSKDSTYSLSSTLTLSKADYEKHKVYACEVTHQGLSSPVTKSFNRGEC", "notes": "fully human IgG1; VH of Ab96 with VL of Ab123"}},
  "key": {"Rat ROBO2 on cells": {"target": "T1, Rat ROBO2 on cells (rat, UniProt Q7TPD3 22-1469 (mouse entry))", "T1 chain": "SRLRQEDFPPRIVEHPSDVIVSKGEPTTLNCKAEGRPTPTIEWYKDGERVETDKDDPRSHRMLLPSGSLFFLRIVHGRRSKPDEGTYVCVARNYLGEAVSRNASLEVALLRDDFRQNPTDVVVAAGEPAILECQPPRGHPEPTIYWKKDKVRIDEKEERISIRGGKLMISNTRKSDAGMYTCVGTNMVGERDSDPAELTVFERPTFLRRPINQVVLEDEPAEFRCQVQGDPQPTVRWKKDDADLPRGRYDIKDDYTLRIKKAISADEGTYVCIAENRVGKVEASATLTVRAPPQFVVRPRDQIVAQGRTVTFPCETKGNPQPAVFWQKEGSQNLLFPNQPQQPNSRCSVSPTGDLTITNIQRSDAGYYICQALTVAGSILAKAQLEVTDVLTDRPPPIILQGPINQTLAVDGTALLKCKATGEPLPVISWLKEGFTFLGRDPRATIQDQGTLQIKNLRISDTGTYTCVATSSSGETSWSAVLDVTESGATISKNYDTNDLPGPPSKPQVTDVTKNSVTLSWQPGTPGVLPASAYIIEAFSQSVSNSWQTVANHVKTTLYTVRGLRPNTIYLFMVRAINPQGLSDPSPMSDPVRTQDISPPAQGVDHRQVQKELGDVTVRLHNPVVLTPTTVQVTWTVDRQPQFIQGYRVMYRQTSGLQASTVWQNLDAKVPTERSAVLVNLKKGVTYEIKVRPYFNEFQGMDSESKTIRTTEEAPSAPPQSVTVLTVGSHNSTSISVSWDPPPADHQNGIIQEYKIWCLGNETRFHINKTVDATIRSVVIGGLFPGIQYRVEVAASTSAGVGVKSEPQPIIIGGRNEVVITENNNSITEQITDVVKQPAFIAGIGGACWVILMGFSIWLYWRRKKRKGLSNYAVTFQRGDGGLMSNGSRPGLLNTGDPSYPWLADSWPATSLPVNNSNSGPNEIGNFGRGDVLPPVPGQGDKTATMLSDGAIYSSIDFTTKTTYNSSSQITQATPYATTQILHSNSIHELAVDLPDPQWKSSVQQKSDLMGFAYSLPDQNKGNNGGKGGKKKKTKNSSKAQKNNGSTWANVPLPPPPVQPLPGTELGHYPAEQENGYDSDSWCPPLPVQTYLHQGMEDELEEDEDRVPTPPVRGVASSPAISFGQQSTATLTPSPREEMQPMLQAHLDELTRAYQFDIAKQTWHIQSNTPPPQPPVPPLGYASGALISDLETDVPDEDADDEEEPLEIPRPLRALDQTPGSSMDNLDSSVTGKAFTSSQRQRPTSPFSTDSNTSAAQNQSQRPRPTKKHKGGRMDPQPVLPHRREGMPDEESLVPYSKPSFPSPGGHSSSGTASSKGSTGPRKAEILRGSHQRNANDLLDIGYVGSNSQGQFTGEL", "experiment": "cell-based or functional assay"}, "Human ROBO2 Ig1-Ig2-His": {"target": "T2, Human ROBO2 Ig1-Ig2-His (human, UniProt Q9HCK4 31-220)", "T2 construct": "the His tag is named only in the SPR paragraphs; the Octet and ELISA paragraphs print 'ROBO2 Ig1-Ig2' without a tag; also called ROBO2 Ig1-2; Human ROBO2 Ig 1,2", "T2 sequence": "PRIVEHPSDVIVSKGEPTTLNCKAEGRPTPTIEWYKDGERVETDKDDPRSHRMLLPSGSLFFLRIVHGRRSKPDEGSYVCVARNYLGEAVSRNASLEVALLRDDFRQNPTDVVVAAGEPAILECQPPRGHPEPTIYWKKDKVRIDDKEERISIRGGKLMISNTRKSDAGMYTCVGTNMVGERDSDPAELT", "experiment": "SPR, Biacore T200, Abcs35 immobilized on CM5 chip, ROBO2 Ig1-Ig2-His as analyte", "procedure": "[…] Association and dissociation were followed over time.\nBased upon several criteria, Abcs25 and Abcs35 were selected for further characterization. Using flow cytometry, improvement in the binding EC₅₀ to human ROBO2 relative to the parental 93H2 was evaluated. Starting at 6.7 nM, 11-point, 3-fold dilution series were made for each antibody and used to stain HEK293 overexpressing human ROBO2 as described above for the ROBO2 fold selectivity (Example 2). […] In addition to measuring improved binding to human ROBO2, it was important to ensure that high affinity binding to both cynomolgus monkey ROBO2 and rat ROBO2 was maintained. Using HEK293 cells overexpressing either cynomolgus monkey ROBO2 or rat ROBO2, the relative dose-dependent binding of 93H2, Abcs25 and Abcs35 was evaluated as described above. High affinity binding to both cynomolgus monkey and rat ROBO2 was maintained in Abcs25 and Abcs35 (Table 4). […] Briefly, Abcs35 was immobilized to 300 resonance units (RU) on a CM5 chip. Association of ROBO2 Ig1-Ig2-His (ROBO2) was measured over 5 minutes and dissociation was followed for a period of 10 minutes."}},
  "data": [
    {"binder": "B1", "values": [
      {"measurement": "IC50, restoration of neuronal cell migration (SVZa assay)", "setting": "Rat ROBO2 on cells", "result": 0.027, "unit": "nM"},
      {"measurement": "Kd", "setting": "Human ROBO2 Ig1-Ig2-His", "result": 0.268, "unit": "nM"}
    ]}
  ]
}
